Source: article PMC4602278

Biological target: Litopenaeus vannamei IRF, endogenous in shrimp tissues (Litopenaeus vannamei (endogenous in intestines and hepatopancreas))
Assay: native gel or EMSA; native-PAGE of shrimp tissue samples (intestines, hepatopancreas; hemocytes as negative control) with western-blot, beta-actin as control; also hepatopancreas at times after WSSV or poly (I:C) treatment

stoichiometry N: 2
Substance: Litopenaeus vannamei IRF, endogenous in shrimp tissues (natural protein)
